Results on one substance are retold here after paper PMC2664613.

As usually defined, the Kd is the free concentration of one partner at which half of the binding sites on the other are occupied at equilibrium, for simple one-to-one binding. Read a high Kd as lower affinity.

For this test, the target named is F-actin (rabbit muscle actin polymerised in vitro) (rabbit) (UniProt P68135). The experiment in a line: co-sedimentation.

For “GST-PICK1 (from UniProt Q9EP80 1-416) (natural protein)”, the Kd worked out at 300 nM.
